Results on 6 compounds are retold here after patent publication US7255985B2, “Fluorine NMR spectroscopy for biochemical screening” (Pfizer Italia S.r.l., priority 2003, dated 2007).

Non-standard residues stand in square brackets, D forms with d. No end group written: not given here. *: point of attachment. Phe(3-CF3) = N[C@@H](Cc1cccc(C(F)(F)F)c1)C(=O)O; Tfa = O=C(C(F)(F)F)*

Assay type in all cases: biochemical
Assay [1] has as its target T1, protein Ser/Thr kinase AKT1 (Homo sapiens, UniProt P31749).
T1 construct: baculovirus coding for the full length protein fused to GST at the N-terminus; GST (N, cleaved yes); made in house; host or cells: Sf21 insect cells (baculovirus), treated with okadaic acid before harvest
The experiment in a line: 19F NMR assay of phosphorylation of CF3-labeled peptide by AKT1. How it is done:
D2O was added to the solutions (8% final concentration) for the lock signal.

The target in assay [2] is T2, trypsin from bovine pancreas (Bos taurus, UniProt P00760).
T2 construct: purchased Roche Molecular Biochemical 1418025; host or cells: bovine pancreas
T2 sequence (P00760 24-246): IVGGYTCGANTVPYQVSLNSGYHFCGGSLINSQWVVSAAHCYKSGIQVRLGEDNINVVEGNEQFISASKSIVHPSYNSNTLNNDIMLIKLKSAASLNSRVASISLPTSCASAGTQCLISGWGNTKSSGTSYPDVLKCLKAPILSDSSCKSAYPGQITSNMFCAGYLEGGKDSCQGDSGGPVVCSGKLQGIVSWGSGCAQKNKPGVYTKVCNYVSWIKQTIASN
The assay is described as follows: 19F NMR assay of cleavage of CF3-labeled peptide by trypsin. As to conditions: 15 nM trypsin. How it is done: FIG. 4 provides the screening of proteases, where the substrate is the peptide of Seq ID NO:2 and the protein is trypsin from bovine pancreas. ^19F NMR spectra for the peptide in the absence (a) and in the presence (b–e) of trypsin. The reaction was run at 22° C. and quenched after 30 minutes with the addition of 0.5 mM phenylmethylsulfonyl fluoride (PMSF). The reaction was performed in the absence of compound (b), in the presence of a five compound mixture (2-amino-6 methylquinazolin-4 ol, ethyl 2-quinoxalinecarboxylate, 5-methyl-benzimidazole, methyl isoquinoline-3-carboxylate, and leupeptin) (c), in the presence of the same mixture without leupeptin (d), and in the presence of only leupeptin (e). The protein, peptide, and compound concentrations were 15 nM, 30 μM, and 20 μM, respectively. A total of 128 scans with 2.8 s repetition time were recorded for each spectrum (6 minute measuring time). Pep and C-pep are the substrate and the product respectively.
The method of the present invention can also be applied to many different types and subtypes of enzymes (e.g. proteases, phosphatases, ligases, etc.). […]
All NMR spectra were recorded at 20° C. with a 600 NMR spectrometer operating at a ^19F Larmor frequency of 564 MHZ. […]

Assay [3] concerns the target T3, p21-activated kinase PAK4 (Homo sapiens, UniProt O96013).
T3 construct: GST (cleaved yes); made in house; host or cells: Escherichia coli
The assay is described as follows: 19F NMR assay of CF3-labeled peptide with PAK4 (protein function). How it is done:
FIG. 5 provides the 19F spectra of the peptide of Seq ID NO:2 in the presence of three different proteins, 25 nM AKT1 (FIG. 5A top), 15 nM trypsin (FIG. 5B middle) and 150 nM PAK4 (FIG. 5C bottom). […] The chemical shift of the cleaved peptide is quite different when compared to the chemical shift of the phosphorylated peptide.
In another embodiment of the present invention, three different proteins, AKT1, Trypsin, and p-21 activated protein (PAK4) were incubated with the CF3-labeled peptide of Seq ID NO:2. […] A higher concentration of the protein with unknown function and a longer incubation period may be required because the substrate may not be optimal for the protein with unknown function. The speed of the enzymatic reaction of PAK4 is only 1/22 of the speed of AKT1, therefore, the period of time for the reaction in the presence of PAK4 was longer than the period of time for the reaction in the presence of AKT1. The method of the present invention is also applicable to activated enzymes.
The serine/threonine p21-activated kinase PAK4 was expressed as a GST fusion protein in Escherichia coli and purified to homogeneity after removal of the GST tag.
All NMR spectra were recorded at 20° C. with a 600 NMR spectrometer operating at a ^19F Larmor frequency of 564 MHZ. A 5 mm probe tunable to either 19F or ^1H frequency was used. […]

T1 sequence (P31749 whole entry, the tested form may be a part): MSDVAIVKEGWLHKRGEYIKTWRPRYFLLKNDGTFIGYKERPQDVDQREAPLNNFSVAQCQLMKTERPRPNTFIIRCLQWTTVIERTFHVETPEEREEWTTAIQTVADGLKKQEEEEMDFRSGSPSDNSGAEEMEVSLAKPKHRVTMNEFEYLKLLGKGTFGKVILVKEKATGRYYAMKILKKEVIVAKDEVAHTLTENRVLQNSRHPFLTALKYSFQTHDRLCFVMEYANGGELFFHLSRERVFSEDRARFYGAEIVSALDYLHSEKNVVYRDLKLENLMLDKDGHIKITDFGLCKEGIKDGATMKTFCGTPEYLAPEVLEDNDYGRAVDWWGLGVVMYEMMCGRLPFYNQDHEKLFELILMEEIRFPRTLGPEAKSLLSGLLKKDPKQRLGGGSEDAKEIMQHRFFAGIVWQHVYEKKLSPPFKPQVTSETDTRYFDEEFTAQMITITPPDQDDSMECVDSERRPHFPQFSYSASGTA
T3 sequence (O96013 whole entry): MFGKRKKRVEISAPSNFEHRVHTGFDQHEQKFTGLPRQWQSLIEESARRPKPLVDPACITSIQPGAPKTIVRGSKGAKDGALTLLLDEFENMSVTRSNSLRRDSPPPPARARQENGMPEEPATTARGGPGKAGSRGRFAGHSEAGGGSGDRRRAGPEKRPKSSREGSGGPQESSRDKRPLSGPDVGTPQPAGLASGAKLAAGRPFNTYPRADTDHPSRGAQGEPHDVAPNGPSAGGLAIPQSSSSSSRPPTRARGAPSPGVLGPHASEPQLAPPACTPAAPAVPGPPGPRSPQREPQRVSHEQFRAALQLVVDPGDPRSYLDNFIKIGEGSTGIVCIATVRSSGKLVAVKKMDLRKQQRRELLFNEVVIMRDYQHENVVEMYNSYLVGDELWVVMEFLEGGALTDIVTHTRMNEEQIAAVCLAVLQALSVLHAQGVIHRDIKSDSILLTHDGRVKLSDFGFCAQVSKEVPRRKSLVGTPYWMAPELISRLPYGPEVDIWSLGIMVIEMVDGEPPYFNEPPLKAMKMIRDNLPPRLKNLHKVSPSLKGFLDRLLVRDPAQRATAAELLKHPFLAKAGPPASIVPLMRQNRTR

Turning to `Nc1ncnc2c1ncn2[C@@H]1O[C@H](COP(=O)(O)OP(=O)(O)OP(=O)(O)O)[C@@H](O)[C@H]1O` [ATP], in assay [1] (40 nM protein, 30 μM substrate peptide, 22° C., quenched after 60 minutes, read-out: KM / binding constant for ATP), the Km was found to be 89 µM.
Turning to `O=S(=O)(NCCNC/C=C/c1ccc(Br)cc1)c1cccc2cnccc12` [H89], in assay [1] (reaction in the presence of only H89 (deconvolution of five molecule mixture)), the “inhibition of peptide phosphorylation” value was “inhibitory effect over peptide phosphorylation”.
`CC(=O)N[C@@H](CC(C)C)C(=O)N[C@@H](CC(C)C)C(=O)N[C@H](C=O)CCCNC(=N)N` [leupeptin, reference compound]: the “inhibition of peptide cleavage by trypsin (cleaved peptide signal)” value in assay [2] (20 μM compound, 30 μM peptide, 22° C., quenched after 30 minutes) is given as “missing cleaved peptide signal”.
Turning to `CN[C@@H]1C[C@H]2O[C@@](C)([C@@H]1OC)n1c3ccccc3c3c4c(c5c6ccccc6n2c5c31)C(=O)NC4` [staurosporine], the “formation of phosphorylated peptide in the presence of inhibitor” value in assay [1] (10 μM Staurosporine, 50 nM protein, 30 μM peptide, 131 μM ATP) is on record as “did not result in any formation of phosphorylated peptide”.
For “ARKRERAF(3-CF3)SFGHHA (ARKRERA[Phe(3-CF3)]SFGHHA) [peptide of Seq ID NO:2, CF3-labeled peptide substrate for trypsin, AKT1 and PAK4]”, the “substrate quality for AKT1” value in assay [1] (25 nM AKT1) is recorded as “good substrate”. Also, the “19F signal after reaction with PAK4” value in assay [3] (150 nM PAK4) is reported as “appearance of a signal at the chemical shift of the phosphorylated peptide”. The “speed of the enzymatic reaction of PAK4 relative to AKT1” value in assay [3] (ratio to speed of AKT1) is given as 1/22. Further, the “substrate quality for trypsin” value in assay [2] was “good substrate”.
On to “CF3—CO-ARKRERAYSFGHHA (Tfa-ARKRERAYSFGHHA) [CF3-labeled peptide of Seq ID NO:1, AKTide, 14 aminoacid peptide labeled with CF3 by N-terminal capping with trifluoroacetic anhydride]”, for which the “time after which the enzymatic reaction is complete” value in assay [1] (50 nM protein, 30 μM peptide, 131 μM ATP, no inhibitor) is 149 min.
